# Assay results reported in the supplement of paper PMC10567573.
# B1: SLC35F2 (parent)
# chain: QYLAERYKVNTPMLQSFINYCLLF
# B2: FAM46C (parent)
# chain: FDHLQNRLIATKNPEEIRGGGLLK
# Variants of: B1
# Assay: protein stability index of a GFP-peptide fusion (GPS, HEK-293T) (PSI 1-6); higher = more stable
# Details: c terminus: a fixed tail appended
# 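Note: lentivirally expressed fusions sorted by FACS into six bins by GFP to DsRed ratio, PSI derived from sequencing read proportions per bin multiplied by bin number.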
row,Variant,protein stability index
1,SYLAERYKVNTPMLQSFINYCLLF [Q1S],2.47
2,HYLAERYKVNTPMLQSFINYCLLF [Q1H],1.53
3,DYLAERYKVNTPMLQSFINYCLLF [Q1D],3.23
4,AYLAERYKVNTPMLQSFINYCLLF [Q1A],2.56
5,VYLAERYKVNTPMLQSFINYCLLF [Q1V],3.18
6,LYLAERYKVNTPMLQSFINYCLLF [Q1L],2.23
7,NYLAERYKVNTPMLQSFINYCLLF [Q1N],2.15
8,GYLAERYKVNTPMLQSFINYCLLF [Q1G],3.99
9,RYLAERYKVNTPMLQSFINYCLLF [Q1R],1.94
10,KYLAERYKVNTPMLQSFINYCLLF [Q1K],2.27
11,PYLAERYKVNTPMLQSFINYCLLF [Q1P],1.77
12,EYLAERYKVNTPMLQSFINYCLLF [Q1E],1.97
13,TYLAERYKVNTPMLQSFINYCLLF [Q1T],2.71
14,FYLAERYKVNTPMLQSFINYCLLF [Q1F],2.37
15,MYLAERYKVNTPMLQSFINYCLLF [Q1M],2.43
16,WYLAERYKVNTPMLQSFINYCLLF [Q1W],2.68
17,IYLAERYKVNTPMLQSFINYCLLF [Q1I],2.1
18,YYLAERYKVNTPMLQSFINYCLLF [Q1Y],2.86
19,CYLAERYKVNTPMLQSFINYCLLF [Q1C],3.23
20,QCLAERYKVNTPMLQSFINYCLLF [Y2C],2.17
21,QDLAERYKVNTPMLQSFINYCLLF [Y2D],1.83
22,QGLAERYKVNTPMLQSFINYCLLF [Y2G],2.52
23,QHLAERYKVNTPMLQSFINYCLLF [Y2H],1.89
24,QALAERYKVNTPMLQSFINYCLLF [Y2A],2.29
25,QELAERYKVNTPMLQSFINYCLLF [Y2E],1.93
26,QILAERYKVNTPMLQSFINYCLLF [Y2I],1.68
27,QFLAERYKVNTPMLQSFINYCLLF [Y2F],3.47

# Variants of: B2
# Assay: as above
# Details: c terminus: a fixed tail appended
row,Variant,protein stability index
1,FDHLQNRLIATKNPEEIRGGGLEK [L23E],4.17
2,FDHLQNRLIATKNPEEIRGGGLNK [L23N],4.43
3,FDHLQNRLIATKNPEEIRGGGLMK [L23M],4.55
4,FDHLQNRLIATKNPEEIRGGGLAK [L23A],3.81
5,FDHLQNRLIATKNPEEIRGGGLRK [L23R],4.29
6,FDHLQNRLIATKNPEEIRGGGLWK [L23W],3.2
7,FDHLQNRLIATKNPEEIRGGGLQK [L23Q],5.13
8,FDHLQNRLIATKNPEEIRGGGLSK [L23S],3.93
9,FDHLQNRLIATKNPEEIRGGGLYK [L23Y],2.99
10,FDHLQNRLIATKNPEEIRGGGLFK [L23F],3.36
11,FDHLQNRLIATKNPEEIRGGGLDK [L23D],4.65
12,FDHLQNRLIATKNPEEIRGGGLTK [L23T],4.56
13,FDHLQNRLIATKNPEEIRGGGLHK [L23H],4.73
14,FDHLQNRLIATKNPEEIRGGGLIK [L23I],4.02
15,FDHLQNRLIATKNPEEIRGGGLVK [L23V],4.3
16,FDHLQNRLIATKNPEEIRGGGLKK [L23K],5.07
17,FDHLQNRLIATKNPEEIRGGGLLR [K24R],3.35
18,FDHLQNRLIATKNPEEIRGGGLLY [K24Y],1.93
19,FDHLQNRLIATKNPEEIRGGGLLF [K24F],2.2
20,FDHLQNRLIATKNPEEIRGGGLLH [K24H],3.07
21,FDHLQNRLIATKNPEEIRGGGLLN [K24N],3.52
22,FDHLQNRLIATKNPEEIRGGGLLQ [K24Q],3.27
23,FDHLQNRLIATKNPEEIRGGGLLW [K24W],1.95

row,Variant,protein stability index
1,FDHLQNRLIATKNPEEIRGGGLLD [K24D],3.51
2,FDHLQNRLIATKNPEEIRGGGLLS [K24S],2.9
3,FDHLQNRLIATKNPEEIRGGGLLE [K24E],3.79
4,FDHLQNRLIATKNPEEIRGGGLLG [K24G],3.52
5,FDHLQNRLIATKNPEEIRGGGLLC [K24C],2.28
6,FDHLQNRLIATKNPEEIRGGGLLA [K24A],2.94
7,FDHLQNRLIATKNPEEIRGGGLLL [K24L],2.18
8,FDHLQNRLIATKNPEEIRGGGLLI [K24I],1.96
9,FDHLQNRLIATKNPEEIRGGGLLM [K24M],3.11
10,FDHLQNRLIATKNPEEIRGGGLLV [K24V],2.29
11,FDHLQNRLIATKNPEEIRGGGLLT [K24T],3.45
12,FDHLQNRLIATKNPEEIRGGHLLK [G21H],3.94
13,FDHLQNRLIATKNPEEIRGGTLLK [G21T],4.07
14,FDHLQNRLIATKNPEEIRGGRLLK [G21R],3.47
15,FDHLQNRLIATKNPEEIRGGVLLK [G21V],3.53
16,FDHLQNRLIATKNPEEIRGGFLLK [G21F],2.82
17,FDHLQNRLIATKNPEEIRGGPLLK [G21P],3.91
18,FDHLQNRLIATKNPEEIRGGKLLK [G21K],4.26
19,FDHLQNRLIATKNPEEIRGGLLLK [G21L],2.61
20,FDHLQNRLIATKNPEEIRGGWLLK [G21W],2.28
21,FDHLQNRLIATKNPEEIRGGMLLK [G21M],3.25
22,FDHLQNRLIATKNPEEIRGGYLLK [G21Y],3.21
23,FDHLQNRLIATKNPEEIRGGSLLK [G21S],4.06

row,Variant,protein stability index
1,FDHLQNRLIATKNPEEIRGGQLLK [G21Q],3.41
2,FDHLQNRLIATKNPEEIRGGNLLK [G21N],4.51
3,FDHLQNRLIATKNPEEIRGGILLK [G21I],2.92
4,FDHLQNRLIATKNPEEIRGGGCLK [L22C],3.78
5,FDHLQNRLIATKNPEEIRGGGVLK [L22V],4.14
6,FDHLQNRLIATKNPEEIRGGGALK [L22A],4.86
7,FDHLQNRLIATKNPEEIRGGGKLK [L22K],4.46
8,FDHLQNRLIATKNPEEIRGGGRLK [L22R],3.98
9,FDHLQNRLIATKNPEEIRGGGFLK [L22F],2.76
10,FDHLQNRLIATKNPEEIRGGGELK [L22E],4.3
11,FDHLQNRLIATKNPEEIRGGGNLK [L22N],4.57
12,FDHLQNRLIATKNPEEIRGGGDLK [L22D],4.71
13,FDHLQNRLIATKNPEEIRGGGILK [L22I],4.01
14,FDHLQNRLIATKNPEEIRGGGQLK [L22Q],4.06
15,FDHLQNRLIATKNPEEIRGGGHLK [L22H],4.2
16,FDHLQNRLIATKNPEEIRGGGSLK [L22S],4.32
17,FDHLQNRLIATKNPEEIRGGGTLK [L22T],4.34
18,FDHLQNRLIATKNPEEIRGGGGLK [L22G],4.02
19,FDHLQNRLIATKNPEEIRGGGMLK [L22M],4
20,FDHLQNRLIATKNPEEIRGGGPLK [L22P],4.2
21,FDHLQNRLIATKNPEEIRGGGYLK [L22Y],3.78
